T1: human PTH1R on Saos-2 cells (endogenous) (human, UniProt Q03431 27-593)
T1 sequence (looked up): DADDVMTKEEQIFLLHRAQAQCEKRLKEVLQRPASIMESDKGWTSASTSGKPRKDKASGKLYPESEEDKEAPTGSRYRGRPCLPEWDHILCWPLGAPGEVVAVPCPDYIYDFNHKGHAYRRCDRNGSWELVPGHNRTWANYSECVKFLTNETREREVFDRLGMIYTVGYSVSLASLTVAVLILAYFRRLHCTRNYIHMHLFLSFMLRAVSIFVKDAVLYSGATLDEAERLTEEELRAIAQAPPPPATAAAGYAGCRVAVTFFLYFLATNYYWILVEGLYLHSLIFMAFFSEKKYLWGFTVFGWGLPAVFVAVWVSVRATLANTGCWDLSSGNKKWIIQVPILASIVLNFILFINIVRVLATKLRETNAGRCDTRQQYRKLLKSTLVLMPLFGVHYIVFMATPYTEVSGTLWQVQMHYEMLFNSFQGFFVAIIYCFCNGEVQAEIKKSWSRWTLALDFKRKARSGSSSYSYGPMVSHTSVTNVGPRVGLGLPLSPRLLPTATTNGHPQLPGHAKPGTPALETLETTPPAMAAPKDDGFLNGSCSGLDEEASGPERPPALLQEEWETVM

T2: human PTH1R overexpressed on Saos-2 cells (human, UniProt Q03431 27-593)
T2 construct: whole, on cells; also called Saos-2 human PTH1R cells
T2 sequence (looked up): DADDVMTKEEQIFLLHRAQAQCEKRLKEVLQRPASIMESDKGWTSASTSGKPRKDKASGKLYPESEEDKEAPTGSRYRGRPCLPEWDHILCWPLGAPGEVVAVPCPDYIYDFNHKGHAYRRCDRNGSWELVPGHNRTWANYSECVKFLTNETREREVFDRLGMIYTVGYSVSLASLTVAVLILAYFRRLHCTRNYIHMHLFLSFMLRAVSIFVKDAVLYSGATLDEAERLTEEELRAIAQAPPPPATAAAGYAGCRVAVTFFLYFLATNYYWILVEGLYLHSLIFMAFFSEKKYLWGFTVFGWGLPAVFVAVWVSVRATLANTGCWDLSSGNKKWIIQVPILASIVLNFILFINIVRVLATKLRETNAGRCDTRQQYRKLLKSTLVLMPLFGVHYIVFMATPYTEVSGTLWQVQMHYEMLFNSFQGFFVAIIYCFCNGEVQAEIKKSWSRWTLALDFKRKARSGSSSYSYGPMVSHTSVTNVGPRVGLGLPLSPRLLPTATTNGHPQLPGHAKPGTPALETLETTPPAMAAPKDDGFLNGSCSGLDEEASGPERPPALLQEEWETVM

T3: recombinant N-terminal extracellular domain of the human PTH1R receptor (human, UniProt Q03431 27-188, limits assumed)
T3 construct: domain: N-terminal extracellular domain; Bought reagent; also called N-ECD PTH1R; PTH1R N-terminal ECD
T3 sequence (looked up): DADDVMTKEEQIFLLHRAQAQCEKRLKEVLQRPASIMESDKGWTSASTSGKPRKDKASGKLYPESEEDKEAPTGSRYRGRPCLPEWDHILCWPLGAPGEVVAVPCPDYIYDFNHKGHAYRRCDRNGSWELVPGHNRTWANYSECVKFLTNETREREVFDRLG

T4: human PTH1R overexpressed on CHO cells (human, UniProt Q03431 27-593)
T4 construct: whole, on cells; also called CHO human PTH1R; CHO Human PTHR
T4 sequence (looked up): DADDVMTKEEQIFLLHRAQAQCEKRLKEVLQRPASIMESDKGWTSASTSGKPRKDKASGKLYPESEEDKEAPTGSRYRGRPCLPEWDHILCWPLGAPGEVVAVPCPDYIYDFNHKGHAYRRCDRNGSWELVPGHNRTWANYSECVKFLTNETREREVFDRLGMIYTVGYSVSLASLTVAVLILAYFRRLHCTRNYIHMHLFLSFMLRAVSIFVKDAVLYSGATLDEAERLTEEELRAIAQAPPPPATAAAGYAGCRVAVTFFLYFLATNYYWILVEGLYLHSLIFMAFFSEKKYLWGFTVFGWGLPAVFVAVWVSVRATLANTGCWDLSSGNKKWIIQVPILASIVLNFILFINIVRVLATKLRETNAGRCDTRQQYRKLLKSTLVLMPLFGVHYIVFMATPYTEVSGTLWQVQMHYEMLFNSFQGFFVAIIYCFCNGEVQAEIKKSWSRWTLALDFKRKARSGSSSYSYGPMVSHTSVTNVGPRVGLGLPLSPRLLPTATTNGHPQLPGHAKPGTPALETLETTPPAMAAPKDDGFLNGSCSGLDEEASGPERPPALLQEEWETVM

T5: mouse PTH1R overexpressed on CHO cells (mouse, UniProt P41593 27-591)
T5 construct: whole, on cells; also called CHO mouse PTH1R; CHO Mouse PTHR
T5 sequence (looked up): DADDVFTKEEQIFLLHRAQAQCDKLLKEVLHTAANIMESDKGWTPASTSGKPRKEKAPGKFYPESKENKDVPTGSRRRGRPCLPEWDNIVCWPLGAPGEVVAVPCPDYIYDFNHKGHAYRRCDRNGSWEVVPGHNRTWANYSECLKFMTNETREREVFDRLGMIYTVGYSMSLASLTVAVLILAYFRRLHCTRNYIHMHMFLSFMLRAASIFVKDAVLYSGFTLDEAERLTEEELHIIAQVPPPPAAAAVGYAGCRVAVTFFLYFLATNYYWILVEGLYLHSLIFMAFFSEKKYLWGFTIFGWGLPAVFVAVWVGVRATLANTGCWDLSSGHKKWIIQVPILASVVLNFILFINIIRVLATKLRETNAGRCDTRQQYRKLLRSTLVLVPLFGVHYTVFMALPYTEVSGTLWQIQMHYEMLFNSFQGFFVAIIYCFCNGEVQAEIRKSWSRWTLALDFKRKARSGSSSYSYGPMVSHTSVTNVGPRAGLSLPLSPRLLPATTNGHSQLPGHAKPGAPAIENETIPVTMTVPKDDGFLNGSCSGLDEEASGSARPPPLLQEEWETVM


Columns and labels:
[1] = biological target: T1, human PTH1R on Saos-2 cells (endogenous); experiment: cell-based or functional assay
[2] = biological target: T2, human PTH1R overexpressed on Saos-2 …; experiment: flow cytometry on Saos-2 cells overexpressing human PTH1R, antibody alone, PE anti-human IgG
[3] = biological target: T1, human PTH1R on Saos-2 cells (endogenous); experiment: cell-based or functional assay; remark: listed apart in the source
[4] = biological target: T3, recombinant N-terminal extracellular …; experiment: SPR, IgG captured, ECD injected
Procedure, shortened: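 Antibodies (0.5 μg/mL) captured on anti-human IgG-Fc chip to 100–200 RU in HBS-EP+ with 2.5 mg/mL BSA; receptor ECD injected at 30 μL/minute for 240 s, 360 s dissociation, 3M MgCl regeneration. Double-referenced data fit globally for ka and kd; KD=kd/kₐ.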

[5] = biological target: T2, human PTH1R overexpressed on Saos-2 …; experiment: flow cytometry on Saos-2 cells overexpressing human PTH1R, in the presence of 1 uM PTH, PE anti-human IgG
[6] = biological target: T4, human PTH1R overexpressed on CHO cells; experiment: flow cytometry on CHO cells, with 3 uM PTHrP as competitor
Procedure: (§1) To characterize antibody binding to PTH1R, cells were labeled with either CellTrace™ CFSE or CellTrace™ Violet. Unlabeled CHOK1 parent, CHO human PTH1R labeled with CellTrace™CFSE, and CHO mouse PTH1R labeled with CellTrace™Violet were pooled together and stained with increasing concentrations of antibody. Antibodies were incubated for 24 hr at 4° C. followed by two washes with FACS Buffer (0.5% BSA, 0.1% NaN3 in DPBS). Cells were then incubated with Allophycocyanin (APC) AffiniPure F(ab′)₂ Fragment Goat Anti-Human IgG (H+L) (Jackson ImmunoResearch, West Grove, Pa.) for 20 minutes at 4° C. Followed by two washes, cells were resuspended in FACS Buffer. Samples were acquired using BD Cytometer (BD Biosciences, San Jose, Calif.) and data were analyzed using FlowJo (FlowJo, LLC, Ashland, Oreg.) and Prism (GraphPad Software, La Jolla, Calif.).

[7] = biological target: T5, mouse PTH1R overexpressed on CHO cells; experiment: as above
Procedure: as §1

| Binder | % inhibition of cAMP accumulation at 1 µM PTH(1-34), 267 nM IgG [1] | % inhibition of cAMP accumulation at 1 µM PTHrP(1-34), 267 nM IgG [1] | EC50 [2] | EC50 of antibody, neutralization of M-CSF production induced by 12.5 nM PTHrP (1-36) [3] | fold shift of the PTHrP (1-36) dose response, M-CSF secretion by Saos-2 cells, 40 µg/mL antibody [3] | Kd [4] | koff [4] | kon [4] | EC50 [5] | EC50 [6] | EC50 [7] | fold shift of the PTH (1-34) dose response, M-CSF secretion by Saos-2 cells, 40 µg/mL antibody [3] |
| --- | --- | --- | --- | --- | --- | --- | --- | --- | --- | --- | --- | --- |
| XPA.85.341 (antibody, V domains shown, Light-chain-shuffled variant of XPA.85.017) VH: EVQLVETGGGVVRPGGSLRLSCAASGFTFSSSAMSWVRQTPGKELQWVSAITPGGEGTYYADVVKGRFTISRDNSKDTLYLQMDSLRAEDTAVYYCARDLYGSYGDAFDIWGQGTLVTVSS VL: SYELTQPSSVSVSPGQTASITCSGDKLGEKYASWYQQKPGQSPVLVMFEDTKRPSGIPERFSGSNSGNTATLTISGTQAEDEADYYCQAWDSSWVFGGGTQLTVL |  |  |  |  |  | 0.31 nM | 0.0006 s⁻¹ | 1.9e+06 M⁻¹ s⁻¹ |  | 1.11 nM | 14.5 nM |  |
| XPA.85.287 (antibody, V domains shown, also called Ab287) VH: EVQLVETGGGVVRPGGSLRLSCAASGFTFSSSAMSWVRQTPGKELQWVSAITPGGEGTYYADVVKGRFTISRDNSKDTLYLQMDSLRAEDTAVYYCARDLYGSYGDAFDIWGQGTLVTVSS VL: SYVLTQPPSVSVAPGQTARITCSGDKLGDRYVSWYQQKPGQSPVLVMFEDTGRPAGIPERFSGSNSGNTATLTISGTQAEDEADYYCQAWGTSWVFGGGTQLTVL |  |  |  |  |  | 0.099 nM | 0.00036 s⁻¹ | 3.6e+06 M⁻¹ s⁻¹ |  | 0.304 nM | 1.51 nM | ~7 fold |

The next lines start with the values.

| % inhibition of cAMP accumulation at 1 µM PTH(1-34), 267 nM IgG [1] | % inhibition of cAMP accumulation at 1 µM PTHrP(1-34), 267 nM IgG [1] | EC50 [2] | EC50 of antibody, neutralization of M-CSF production induced by 12.5 nM PTHrP (1-36) [3] | fold shift of the PTHrP (1-36) dose response, M-CSF secretion by Saos-2 cells, 40 µg/mL antibody [3] | Kd [4] | koff [4] | kon [4] | EC50 [5] | EC50 [6] | EC50 [7] | fold shift of the PTH (1-34) dose response, M-CSF secretion by Saos-2 cells, 40 µg/mL antibody [3] | Binder |
| --- | --- | --- | --- | --- | --- | --- | --- | --- | --- | --- | --- | --- |
| 79% | 90% | 7.61 nM | 4 nM | > 200 fold | 0.22 nM | 7.6e-05 s⁻¹ | 340000 M⁻¹ s⁻¹ | 35.3 nM |  |  |  | XPA.85.329 (antibody, V domains shown, IgG; also called Ab329; XPA.329) VH: QMQLVQSGAEVKKPGSSVKVSCKASGGTFSSYAISWVRQAPGQGLEWMGGIIPIFGTANYAQKFQGRVTITADESTSTAYMELSSLRSEDTAVYYCARGYVVARLWGQGTLVTVSS VL: DIVMTQTPLSLSVTPGQPASISCKSSQSLLHIDGLTYLYWYLQKPGQPPQLLIYEVSHRFSGVSDKFSGSGSGTDFTLTISRVEAEDVGVYYCMQSLHLPITFGQGTRLEIK |
|  |  |  |  |  | 0.22 nM | 0.00065 s⁻¹ | 2.9e+06 M⁻¹ s⁻¹ |  | 0.479 nM | 18.7 nM |  | XPA.85.339 (antibody, V domains shown, Light-chain-shuffled variant of XPA.85.017) VH: EVQLVETGGGVVRPGGSLRLSCAASGFTFSSSAMSWVRQTPGKELQWVSAITPGGEGTYYADVVKGRFTISRDNSKDTLYLQMDSLRAEDTAVYYCARDLYGSYGDAFDIWGQGTLVTVSS VL: SYELTQPPSVSVAPGQTATITCSGDRLGDKFISWYQQKPGQSPLLVIFEDNERPSRIPERFSGSNSGNSATLTISGTQAVDEADYYCQAWDSSWVFGGGTQLTVL |
